# B1: GABAA receptor α4 subunit (natural protein, rat (endogenous in hippocampus), UniProt P28471 36-552, looked up)
# chain: QNSKDEKLCPENFTRILDSLLDGYDNRLRPGFGGPVTEVKTDIYVTSFGPVSDVEMEYTMDVFFRQTWIDKRLKYDGPIEILRLNNMMVTKVWTPDTFFRNGKKSVSHNMTAPNKLFRIMRNGTILYTMRLTISAECPMRLVDFPMDGHACPLKFGSYAYPKSEMIYTWTKGPEKSVEVPKESSSLVQYDLIGQTVSSETIKSITGEYIVMTVYFHLRRKMGYFMIQTYIPCIMTVILSQVSFWINKESVPARTVFGITTVLTMTTLSISARHSLPKVSYATAMDWFIAVCFAFVFSALIEFAAVNYFTNIQMQKAKKKISKPPPEVPAAPVLKEKHTETSLQNTHANLNMRKRTNALVHSESDVNSRTEVGNHSSKTTAAQESSETTPKAHLASSPNPFSRANAAETISAAARGLSSAASPSPHGTLQPAPLRSASARPAFGARLGRIKTTVNTTGVPGNVSATPPPSAPPPSGSGTSKIDKYARILFPVTFGAFNMVYWVVYLSKDTMEKSESLM
# Target: GABAA receptor γ2 subunit (rat (endogenous in hippocampus), UniProt P18508 39-466)
# Assay: co-IP
# Chain of GABAA receptor γ2 subunit (P18508 39-466): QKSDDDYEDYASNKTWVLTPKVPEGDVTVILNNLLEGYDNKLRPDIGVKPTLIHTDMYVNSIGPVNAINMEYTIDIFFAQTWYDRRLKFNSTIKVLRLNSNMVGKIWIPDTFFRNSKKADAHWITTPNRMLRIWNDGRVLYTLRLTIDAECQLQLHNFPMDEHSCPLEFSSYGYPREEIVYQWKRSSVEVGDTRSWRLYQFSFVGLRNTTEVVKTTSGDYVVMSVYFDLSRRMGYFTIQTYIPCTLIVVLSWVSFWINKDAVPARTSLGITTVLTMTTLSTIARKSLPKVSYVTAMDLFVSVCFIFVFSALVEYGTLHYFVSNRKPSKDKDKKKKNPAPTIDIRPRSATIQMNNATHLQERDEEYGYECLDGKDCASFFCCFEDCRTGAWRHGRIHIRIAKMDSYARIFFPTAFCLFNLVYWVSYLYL
binder,measurement,value
B1,"ratio of the α4-γ2 co-precipitation (normalised α4 to γ2), control animals",0.55 ± 0.02
same,"ratio of the α4-γ2 co-precipitation (normalised α4 to γ2), epileptic animals",1.12 ± 0.24
